Molecular target: T1, human serum albumin (human, UniProt P02768 25-609)
T1 construct: also called HSA; human albumin
Assay: ELISA, albumin coated on plate, Fab in solution

T1 sequence (P02768 25-609 limits assumed): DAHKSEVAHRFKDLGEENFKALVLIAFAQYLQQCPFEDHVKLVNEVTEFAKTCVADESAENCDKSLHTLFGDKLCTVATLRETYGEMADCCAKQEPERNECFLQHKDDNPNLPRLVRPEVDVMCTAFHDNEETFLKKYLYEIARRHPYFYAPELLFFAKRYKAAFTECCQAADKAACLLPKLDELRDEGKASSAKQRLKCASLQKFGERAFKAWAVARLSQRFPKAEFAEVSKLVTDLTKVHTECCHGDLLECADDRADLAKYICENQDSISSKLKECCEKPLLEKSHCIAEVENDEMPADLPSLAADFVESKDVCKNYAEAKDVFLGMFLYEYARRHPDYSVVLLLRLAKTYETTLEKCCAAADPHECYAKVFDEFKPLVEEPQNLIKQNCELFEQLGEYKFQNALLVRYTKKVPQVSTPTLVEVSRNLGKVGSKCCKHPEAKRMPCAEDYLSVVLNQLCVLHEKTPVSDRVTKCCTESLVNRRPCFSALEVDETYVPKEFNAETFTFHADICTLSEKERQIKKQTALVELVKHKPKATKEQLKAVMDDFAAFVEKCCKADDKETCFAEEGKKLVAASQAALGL

B1: FL335 Fab antibody fragment (Fab, V domains shown)
VH: QVQLVQSGGGPVKPGGSLRLSCAASGFMFRAYSMNWVRQAPGKGLEWVSSISSSGRYIHYADSVKGRFTISRDNAKNSLYLQMNSLRAEDTAVYYCARETVMAGKALDYWGQGTLVTVSS
VL: DIVLTQSPGTLSLSPGETATLSCRASQSVGSNLAWYQQKPGQAPRLLIYGASTGATGVPARFSGSRSGTDFTLTITSLQPEDFATYYCQQYYSFLAKTFGQGTQLEIKR
notes: also called FL355 Fab antibody fragment; feline chimeric antibody fragment
- binding result: binds

Reference: patent US20230140224A1 (APRILBIO, published 2023)
